One block for each molecule: values may come before it.
How the values were obtained:
[1] = target: His-MBP-SALL4(QID-ZFC4) fusion protein (mouse); assay: SEC-MALS
SEC-MALS = target: the molecule itself; assay: SEC-MALS
SALL4 QID-ZFC4 = target: T1, SALL4 QID-ZFC4 (UniProt Q8BX22 201-240+870-940, internal_change); assay: SPR
T1 sequence: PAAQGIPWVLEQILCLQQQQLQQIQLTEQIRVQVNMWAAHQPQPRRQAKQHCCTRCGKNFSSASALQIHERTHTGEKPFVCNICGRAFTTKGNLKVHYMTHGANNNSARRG

stoichiometry N [1]: 4
Molecule: His-MBP-SALL4(QID-ZFC4) fusion protein (domain or fragment)

Molecule: GAEAPMAPMPAAQGIPWVLEQILCLQQQQLQQIQLTEQIRVQVNMW (domain or fragment, mouse, UniProt Q8BX22 192-237, looked up) [recombinant SALL4 QID (192-237) peptide]
stoichiometry N (SEC-MALS): 4

B1: SPR probe, single ATATTA motif (dsDNA)
DNA 1: AGCAGGCCTAATATCGCAC
DNA 2: GTGCGATATTAGGCCTGCT
binding result (SALL4 QID-ZFC4): binds

Source: publication doi:10.1101/2025.10.27.684836 (bioRxiv, 2025)
